Test results published in US20130310317A1 (Bristol-Myers Squibb, published 2013).
Blank lines part the entries; values can stand above or below the molecule they belong to.

How the values were obtained:
human IGF-IR on cells [1] = target: T1, human IGF-IR on cells (human, UniProt P08069 31-1367); assay: cell-based or functional assay
human IGF-IR on cells [2] = target: T1, human IGF-IR on cells; assay: displacement of [125I]-IGF-I from MCF-7 cells
Experimental: (§1) Cells were subsequently lysed and radioactivity was quantitated.
(§2) The human breast adenocarcinoma MCF-7 (ATCC, Manassas, Va.) was plated in 24 well plates at a concentration of 50,000 cells per well in RPMI 1640 (Invitrogen, Carlsbad, Calif.) containing 10% fetal bovine serum (Hyclone, Logan, Utah). The following day, cells were washed in binding buffer consisting of RPMI 1640 containing 0.1% BSA (Sigma, St. Louis, Mo.), and then pre-incubated for 30 minutes on ice in 200 μL binding buffer containing IGF-IR competitor. […] The wells were then washed with ice cold PBS containing 0.1% BSA. Cells were lysed with 500 μL buffer consisting of 0.1% SDS+0.5 N NaOH. Radioactivity of the lysates was measured using a Wallac 1470 Gamma Counter (Perkin Elmer, Wellesley, Mass.), and the data were analyzed using SigmaPlot (Systat Software, Point Richmond, Calif.).

human IGF-IR on cells [3] = target: T1, human IGF-IR on cells; assay: displacement of 40 pM [125I]-IGF-I from MCF-7 cells, on ice, cell-bound CPM
Experimental: as §1, §2

IGF-IR-Fc [4] = target: T2, IGF-IR-Fc (human, UniProt P08069 31-932); assay: SPR (BIAcore); immobilized IGF-IR, analyte in solution
T2 construct: range 1-932; Made in house by transient transfection, captured on Protein A on CM5 chips for kinetic analysis; also called human IGF-IR-Fc fusion protein; recombinant, immobilized IGF-IR (BIAcore); not shown: hinge and constant regions of human IgG1
Experimental: (§3) The binding kinetics of fibronectin-based scaffold proteins binding proteins to the target was measured using BIAcore 2000 or 3000 biosensors (Pharmacia Biosensor). A capture assay was developed utilizing an IGF-IR-Fc fusion. A similar reagent had been described by Forbes et al. (Forbes et al. 2002, European J. Biochemistry, 269, 961-968). The extracellular domain of human IGF-IR (aa 1-932) was cloned into a mammalian expression vector containing the hinge and constant regions of human IgG1. Transient transfection of the plasmid produced a fusion protein, IGF-IR-Fc which was subsequently purified by Protein A chromatography and captured on Protein A immobilized on Biasensor CM5 chips by amine coupling. The kinetic analysis involved the capture of IGF-IR-Fc on Protein A followed by injection of the fibronectin-based scaffold protein in solution and regeneration of the Protein A surface by glycine pH 2.0. Sensorgrams were obtained at each concentration and were evaluated using a program Biaevaluation, BIA Evaluation 2.0 (BIAcore), to determine the rate constants kₐ (kₒₙ) and kd (koff) The dissociation constant, KD was calculated from the ratio of rate constants koff/kₒₙ. Typically, a concentration series (2 uM to 0 uM) of purified fibronectin-based scaffold protein was evaluated for binding to protein A captured human IGF-IR-Fc fusion protein.

IGF-IR-Fc [5] = target: T2, IGF-IR-Fc; assay: SPR (BIAcore); IGF-IR-Fc captured on Protein A, analyte in solution
Experimental: as §3

IGF-IR-Fc [6] = target: T2, IGF-IR-Fc; assay: SPR (BIAcore); IGF-IR-Fc captured on Protein A, clone in solution
Experimental: as §3

- IC50, serum mediated proliferation of NCI-H929 cells (human IGF-IR on cells [1]): 100 pM
- IC50 (human IGF-IR on cells [2]): 5 nM
- IC50 (read off the curve) (human IGF-IR on cells [3]): 2 nM
Molecule: anti-IGF-IR monoclonal antibody MAB391

- IC50, serum mediated proliferation of NCI-H929 cells (human IGF-IR on cells [1]): ~1000 pM
- fold change of on-rate (ka) relative to unmodified 385A08 (IGF-IR-Fc [4]): ~10 fold slower
- Kd (IGF-IR-Fc [5]): 0.355 nM
- koff (IGF-IR-Fc [5]): 0.00021 s⁻¹
- kon (IGF-IR-Fc [5]): 600000 M⁻¹ s⁻¹
B1: 385A08-PEG40 (designed binder)
chain: GVSDVPRDLEVVAATPTSLLISWSARLKVARYYRITYGETGGNSPVQEFTVPKNVYTATISGLKPGVDYTITVYAVTRFRDYQPISINYRTEIDKPCQ
modifications: Cys97 coupled by maleimide chemistry to a mono-functional branched 40 kDa PEG

- IC50, serum mediated proliferation of NCI-H929 cells (human IGF-IR on cells [1]): < 0.1 pM
- fold change of on-rate (ka) relative to unmodified 385A08 (IGF-IR-Fc [4]): ~2 fold faster
- Kd (IGF-IR-Fc [5]): 0.006 nM
- koff (IGF-IR-Fc [5]): 9e-05 s⁻¹
- kon (IGF-IR-Fc [5]): 1.5e+07 M⁻¹ s⁻¹
B2: 385A08-PEG20-385A08 (designed binder)
chain: B1 chain
modifications: Cys97 coupled by maleimide chemistry to a linear 20 kDa bifunctional PEG that links the two chains
notes: Two copies of 385A08 with the C-terminal Cys extension, joined through PEG; also called PEG20-385A08-PEG20 variant

- Kd (IGF-IR-Fc [6]): 1.8 nM
B3: 218C04 (designed binder)
chain: VSDVPRDLEVVAATPTSLLISWSPYLRVARYYRITYGETGGNSPVQEFTVPSSARTATISGLKPGVDYTITVYAVTPSNIIGRHYGPISINYRTHHHHHH
notes: also called clone 218C04; pre-optimized clone
